Consider 167 variants from the Human Domainome abundance scans (Beltran et al. 2025).

± gives the uncertainty stated by the source.

The labels stand for the following.
B1: Zinc finger MYM-type protein 3, residues 589 to 668; numbered along this chain, Q14202 (parent)
chain: LSCHYCHSLFSGKPEVLDWQDQVFQFCCRDCCEDFKRLRGVVSQCEHCRQEKLLHEKLRFSGVEKSFCSEGCVLLYKQDF

The variants in this data set derive from B1. The data set can be described thus: abundance fitness (aPCA) (normalised: wild type 0, dead -1); higher = more abundant; growth selection in yeast, the domain comes from the species named. To be noted: Homo sapiens.
Consider L38I, for which the abundance fitness is 0.063 ± 0.16. Consider L17A, for which the abundance fitness is -0.035 ± 0.043. With L17I, the abundance fitness is -0.009 ± 0.091. The same measure for L17N: -0.53 ± 0.19. As for L17S, the figure is -0.262 ± 0.048. The same measure for L17E: -0.146 ± 0.05; for H7N: 0.126 ± 0.064; for H7M: -0.133 ± 0.067. Regarding H7R, the abundance fitness came to 0.049 ± 0.046. Regarding L75N, the abundance fitness was found to be 0.227 ± 0.14. The same measure for L75G: 0.276 ± 0.073.

Regarding L75P, the abundance fitness is -0.268 ± 0.2. Regarding L75A, the abundance fitness turned out to be 0.615 ± 0.073. With L75C, the abundance fitness turned out to be 0.373 ± 0.21. As for L75T, the figure is -0.078 ± 0.12; as for R29N, 0.206 ± 0.075. The same measure for R29T: -0.002 ± 0.046. In the case of R29A, the abundance fitness was found to be 0.069 ± 0.042. The same measure for C45E: -1.07 ± 0.29; for C45F: -0.356 ± 0.26; for D34G: 0.024 ± 0.04. As for D34V, the figure is -0.079 ± 0.058; as for D34S, -0.164 ± 0.045; as for D34T, -0.178 ± 0.056. As to D34P, the abundance fitness is -0.384 ± 0.076. Turning to D34E, the abundance fitness was -0.01 ± 0.045.

Take D34F: the abundance fitness is -0.192 ± 0.071. The same measure for D34M: 0.17 ± 0.044. As for F60M, the abundance fitness was found to be 0.079 ± 0.27.

Regarding F60L, the abundance fitness came out at 0.103 ± 0.11. As for F60Q, the figure is -0.069 ± 0.13; as for E51H, 0.675 ± 0.42. As for E51T, the figure is -0.096 ± 0.18. In the case of E51A, the abundance fitness was -0.394 ± 0.16.

Consider E51Q, for which the abundance fitness was found to be 0.003 ± 0.41. The same measure for L1K: 0.016 ± 0.069; for L1C: 0.004 ± 0.074. The same measure for L1M: 0.442 ± 0.06. Consider L1F, for which the abundance fitness amounted to 0.279 ± 0.073. L1P: the abundance fitness is -0.436 ± 0.34. With L1A, the abundance fitness was -0.012 ± 0.16. The same measure for L1T: 0.098 ± 0.046; for L1I: 0.363 ± 0.071; for C31R: -0.901 ± 0.08.

C31D: the abundance fitness was -0.545 ± 0.12.

As to C31P, the abundance fitness was -1.02 ± 0.18. C31M: the abundance fitness is -0.778 ± 0.14. The same measure for Y5R: 0.19 ± 0.037; for Y5G: 0.156 ± 0.037. As for Y5H, the figure is -0.066 ± 0.055. The same measure for Y5C: 0.01 ± 0.055. As to R37V, the abundance fitness was 0.097 ± 0.1. Regarding R37K, the abundance fitness was -0.343 ± 0.21. The same measure for R37G: -0.045 ± 0.061. The same measure for D21Q: 0.033 ± 0.055; for D21S: -0.065 ± 0.045; for D21C: -0.204 ± 0.07. The same measure for D21M: 0.068 ± 0.054. On to V23C, for which the abundance fitness came to 0.236 ± 0.046.

Take V23H: the abundance fitness was 0.111 ± 0.051. As for V23D, the figure is -0.085 ± 0.05; as for C6R, -0.919 ± 0.072; as for E15S, -0.108 ± 0.064. As for G62Q, the figure is -0.865 ± 0.36; as for G62L, -1.05 ± 0.27; as for D30I, -0.243 ± 0.088. D30M: the abundance fitness worked out at 0.3 ± 0.045. The same measure for D30L: -0.012 ± 0.041; for C48V: -0.741 ± 0.18. The same measure for C48R: -0.553 ± 0.12; for K65V: -0.317 ± 0.19. On to K65Y, for which the abundance fitness is -0.113 ± 0.25.

Take K65M: the abundance fitness came out at 0.26 ± 0.21. K65A: the abundance fitness was -0.268 ± 0.16. As for K65T, the figure is -0.495 ± 0.28; as for K65S, -1.12 ± 0.48.

Take K65R: the abundance fitness is -0.115 ± 0.098. The same measure for E70G: -0.116 ± 0.12. As for E70S, the figure is 0.067 ± 0.12. As for E70P, the figure is 0.069 ± 0.21.

Turning to E70W, the abundance fitness is -0.918 ± 0.4.

Turning to L53R, the abundance fitness was -0.327 ± 0.11. As for L53M, the figure is -0.234 ± 0.23; as for L53P, -0.091 ± 0.22; as for C72R, -0.781 ± 0.17.

With C72E, the abundance fitness was -0.644 ± 0.28.

Take S8M: the abundance fitness came to 0.355 ± 0.05. As for S8N, the figure is 0.297 ± 0.072; as for S8Q, 0.397 ± 0.053. As for S8R, the figure is 0.332 ± 0.038; as for S8D, 0.076 ± 0.057. With S8V, the abundance fitness is 0.374 ± 0.04. For the variant S8L, the abundance fitness amounted to 0.062 ± 0.042. Turning to F26E, the abundance fitness was -0.506 ± 0.057. Turning to F26G, the abundance fitness is -0.603 ± 0.058. As for F26D, the figure is -0.657 ± 0.11. As for F26Q, the figure is -0.482 ± 0.069; as for F26V, -0.515 ± 0.048.

In the case of F24C, the abundance fitness amounted to 0.112 ± 0.057. In the case of F24N, the abundance fitness was found to be 0.001 ± 0.083. For the variant S2W, the abundance fitness is -0.069 ± 0.06. The same measure for S43P: -0.496 ± 0.3; for S43A: -0.076 ± 0.097. As for S43F, the figure is -0.144 ± 0.3; as for S43C, -0.062 ± 0.16. Regarding S43D, the abundance fitness is -0.235 ± 0.23. The same measure for L74G: 0.183 ± 0.099; for L74V: -0.195 ± 0.099. For L74S, the abundance fitness is -0.081 ± 0.19. On to L74M, for which the abundance fitness worked out at 0.292 ± 0.11. Regarding L74T, the abundance fitness was found to be 0.151 ± 0.13. As for S11P, the figure is -0.454 ± 0.071. Turning to S11T, the abundance fitness is -0.155 ± 0.049. Regarding S11E, the abundance fitness was -0.276 ± 0.3. The same measure for S11F: -0.397 ± 0.082; for S11C: -0.512 ± 0.08; for P14T: -0.381 ± 0.079. As for P14A, the figure is -0.223 ± 0.045; as for P14N, -0.153 ± 0.24; as for P14M, -0.169 ± 0.065. The same measure for P14Q: -0.39 ± 0.071; for Q78T: -0.188 ± 0.17. Consider Q78A, for which the abundance fitness was 0.034 ± 0.11. The same measure for Q78C: -0.892 ± 0.35.

Consider Q78E, for which the abundance fitness came out at 0.018 ± 0.17. H47P: the abundance fitness was -0.742 ± 0.42.

Take H47E: the abundance fitness was -0.406 ± 0.16. As for H47K, the figure is 0.075 ± 0.29; as for H47S, -0.098 ± 0.14.

With H47V, the abundance fitness was determined as 0.075 ± 0.2. The same measure for V16L: -0.065 ± 0.05.

With V16M, the abundance fitness stood at 0.022 ± 0.064.

In the case of S61D, the abundance fitness turned out to be 0.665 ± 0.13. As for S61E, the figure is 0.293 ± 0.081; as for L58C, -0.179 ± 0.28; as for L58A, 0.158 ± 0.089. Consider S66Y, for which the abundance fitness is 0.382 ± 0.16.

S66T: the abundance fitness is -0.617 ± 0.28. The same measure for S66A: -0.222 ± 0.15.

Turning to S66G, the abundance fitness was -0.392 ± 0.12. As for F80A, the figure is 0.288 ± 0.16; as for F80M, 0.294 ± 0.26; as for F80T, 0.652 ± 0.24. As for C32M, the figure is 0.214 ± 0.047; as for C32K, 0.157 ± 0.044. The same measure for C32N: -0.239 ± 0.14; for C32T: -0.108 ± 0.047. As for C32G, the abundance fitness was -0.253 ± 0.042.

With C32R, the abundance fitness is -0.176 ± 0.04. For the variant C32P, the abundance fitness was -0.574 ± 0.097. The same measure for C32A: -0.026 ± 0.042; for C32E: -0.203 ± 0.055; for C32I: -0.113 ± 0.08. R59V: the abundance fitness is 0.306 ± 0.12. Take R59T: the abundance fitness is 0.631 ± 0.14. In the case of E56Q, the abundance fitness is -0.112 ± 0.14.

On to E56T, for which the abundance fitness was -0.091 ± 0.29. Turning to E56V, the abundance fitness was 0.548 ± 0.082.

On to E56S, for which the abundance fitness was -0.299 ± 0.16. As for E56H, the figure is -0.161 ± 0.32; as for E56L, 0.131 ± 0.12; as for H4I, -0.064 ± 0.073. In the case of H4Q, the abundance fitness is 0.088 ± 0.046. Turning to H4D, the abundance fitness amounted to 0.128 ± 0.052. The same measure for H4C: 0.26 ± 0.051; for H4T: 0.19 ± 0.043; for H4R: 0.115 ± 0.038.
